The target in this test is Get3^BDP•TA targeting complex (Get3 dimer with the model tail-anchored substrate 3xStrep-SUMOnc-Bos1-opsin) (yeast | not stated) (UniProt Q12154). In words: FRET or BRET. For orientation: BRET reads energy transfer from a luciferase to a nearby fluorophore.

The results in this text go back to publication PMC8530227.

Sequence of Get3^BDP•TA targeting complex (Get3 dimer with the model tail-anchored substrate 3xStrep-SUMOnc-Bos1-opsin) (yeast | not stated) (Q12154 whole entry, chain 1 of 2): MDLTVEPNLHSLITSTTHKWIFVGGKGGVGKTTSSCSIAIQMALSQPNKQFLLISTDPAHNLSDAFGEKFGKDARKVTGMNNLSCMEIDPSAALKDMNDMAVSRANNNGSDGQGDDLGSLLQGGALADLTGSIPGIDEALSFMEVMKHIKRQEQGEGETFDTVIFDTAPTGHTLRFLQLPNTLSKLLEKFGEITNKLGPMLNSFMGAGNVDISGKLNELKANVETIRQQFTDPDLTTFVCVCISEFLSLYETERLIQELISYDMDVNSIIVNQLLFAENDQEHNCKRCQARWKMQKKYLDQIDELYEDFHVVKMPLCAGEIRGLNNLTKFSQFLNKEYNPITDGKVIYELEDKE
Sequence of Get3^BDP•TA targeting complex (Get3 dimer with the model tail-anchored substrate 3xStrep-SUMOnc-Bos1-opsin) (yeast | not stated) (P25385 203-244, chain 2 of 2, further chain): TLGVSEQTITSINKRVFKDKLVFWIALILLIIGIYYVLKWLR

By Kd is commonly meant the constant that tells how readily two partners part at equilibrium. A lower Kd goes with higher affinity. As for “mini-Get1(NR)/2^TMR (from UniProt P53192 20-102; P40056 1-150) (complex)”, the Kd was 7.1 nM. In turn, “mini-Get1/2^TMR (mini-Get1/2 labeled with TMR on Get2CD) (from UniProt P53192 20-102; P40056 1-150) (complex)” registered a reduction in donor fluorescence (FRET) of 50%. As to “mini-Get1^TMR/2 (mini-Get1/2 labeled with TMR on Get1CD) (from UniProt P53192 20-102; P40056 1-150) (complex)”, the reduction in donor fluorescence (FRET) was determined as 50%.
